# Measured values reported in the nanobody polyreactivity screen of Harvey et al. (2022).
# Test: yeast display, Sf9 membrane polyspecificity reagent, FACS + sequencing; frameworks hold sequencing errors
# Outline: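 Galactose-induced (36–48 hours) yeast carrying a synthetic nanobody display library were exposed to 10% biotinylated, detergent-solubilized Sf9 membrane reagent at 4 °C for 1 hour. FACS followed streptavidin microbead enrichment, using low and high (top ~1%) gates for expression (anti-HA) and reagent binding (streptavidin). Colony PCR, MiSeq 2 × 250 sequencing and CDR-length filtering followed. Labels for polyreactivity reflect the gate of origin.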
row,Sequence,polyreactivity (PSR sort gate)
1,QVQRVESVGGLVQAGGSLRFSCAASGSTFTANAMGWYRQAPGKEREFVAAITQSGGDTYYADSVKGRFTISRDNAKNTVYLQMNSLKPEDSEVYYCAAESAYFVALTHFYTVEFYYWGQGTQGTVSS,low polyreactivity
2,QVQRVETGRGIVQAGGILRLSCAASGRTFHLYAMGWYRQQPGKERELVADIDGDGGSTYYSDSVKGRFTISRDNAKNTVYLQMNSLKPEDTAVYDCAASRFDYWGQGTQVTVSS,low polyreactivity
3,QVQVEESGGGVVQAGGSLRLSCAAYGRIFFRNAMGWYRPAPGKERELVAVINTGGSTNYADSVKGRFTISRDNAKNTVYLQMNRLKAEDTAVYYCAVDRASRRTYNQYGYWGQGTQVSVSS,high polyreactivity
4,QVQVVDSGGGLVQAGGSLSLSCAASGSIFIYYAMGWYRQAPGKERELVAVINDDGSTNYADSVKGRFTISRDNAMNTVYLQMNSLKPEDTAVYYCNTTIGTYYSPSDYWGQGTQVTVSS,low polyreactivity
5,QVQVVESGGGFVQAGGSLRVSCAASGSTFRANAMGCYTQAPGKERELVAAISQSGGITYYADSVKGRFTISRDIAKNTVYLQMNSLKPEDTAVYYCAAKIALDNDYWGQGTQVTVSS,high polyreactivity
6,QVQVVESGGGLVKAGGSLRISCAASGRSFGANVMGWYRQAPGKEREFVAAISSSGGSTYYADSVKGRFTISRDNAKNTVYLQMNSVKPEDTAVYYCAAGGWPYSGGWFFQPNYDYWGQGTQVTVSS,low polyreactivity
7,QVQVVESGGGLVQAGASLRLSCAATGSIFVWNDMGGYRQAPGTEREFVAAITSGDGSTYYADSVKGRFTISRDNAKNTGYLQMNSLKPEDTAVYYCAARLRVTGFYSRTRFYWGQGTQVTVSS,low polyreactivity
8,QVQVVESGGGLVQAGGSLRLRCAASGRIFAHYAMGWYRQAPGKEREMVAAISSSGTRTYYADSVKGRFTISRDNAKKTVYLQMNSLKPEDTAVYYCAKDSYHTVWGGYWGQGTQVTVSS,high polyreactivity
9,QVQVVESGGGLVQAGGSLRLSCAASGFTFYPNAMGWYRQAPGKERELVATITGSGGSTNYADSVKGRFPISRDTAQNTVYLQMNSLKPEDTAVYYCAADYAVYSFTDFNYWGQGTQVTVSS,high polyreactivity
10,QVQVVESGGGLVQAGGSLRLSCAASGGIFYGYAMGWYRQAPGKERELVAAITSNGGTTYYADSVKGRFTISRDNAKNTVYLQMNSLKPEDTAVYYCDAYFKDSGSYYYWGQGTQVNVSS,low polyreactivity
11,QVQVVESGGGLVQAGGSLRLSCAASGRIFNYYAMGWYRPAPGKERELVATITGGGRTYYADSVKGRFTISRDNGMKTVYLQMNSLKPEDSAVYYCAAQYGGLSYRYDYWGQGTQVTVSS,high polyreactivity
12,QVQVVESGGGLVQAGGSLRLSCAASGRTFDVYAMGWYRQAPGKERELVAAITERGSTYYADSVKRRFTISRDNAKNTDYLQMNSLKPVDTAVYDCAARTSGDGCIYYYWGQGTQVTVSS,high polyreactivity
13,QVQVVESGGGLVQAGGSLRLSCAASGRTFNPNVMGWYRQAPGKERELVAAISRGGSTYYADSVKGLFTISRDNAKNTVYLQMNSLKPEDTAVYYCAATHYGHSISNWFDYWGQGTQVTVSS,high polyreactivity
14,QVQVVESGGGLVQAGGSLRLSCAASGRTFRDNAMGWYRQAPGNERELVAAISRSGGRTYYADSVKGRCTISRDNAKNTVYLQMNSLKPEDTAVYYCAAYYYTAGDSSARYDYWGQGTQVTVSS,high polyreactivity
15,QVQVVESGGGLVQAGGSLRLSCAASGRTFRSYAMVWYRQAPGKERELVASISRGASTNYADSVNGRFTISRDNSKNTVYLQRNSLKPEDTAVYYCAAKYSWGYTYYYWGQGTQVTVSS,high polyreactivity
16,QVQVVESGGGLVQAGGSLRLSCAASGSTFSRNAMGWYRQAPGKERELVAAINYSGGITYYADSVKGRFTISRDNAKNTVYLQMNSQKPEDTAVYYCAAVATNVPTHGRPSRRAYDYWGQGTQVTVSS,low polyreactivity
17,QVQVVESGGGLVQAGGSLRLSCAASGSTFVTYAMGWYRQARVKERELVAGISTGDITNYADSVKVRFTISRDNAKNTVYLQINRLKPEDTAVYYCSADLIQGAAPFRYDYWGQGTQVTVSS,low polyreactivity
18,QVQVVESGGGLVQAGGSLRLSCAASGSTFYRYAMGWYRQAPGKERELVAAITRGGGRTYYADSVKGRFTISRDHAKNTVYLQMNSLKPEDSAVYYCNAASPYYDSWGQGTQVTVSS,high polyreactivity
19,QVQVVESVGGLVHAGCSLRLSCAASGRTFISNAMGWYRQAPGKERELVATITYSDATTYYADSVKGRFTISRDNAKNTVYLQMNSLKPEDTAVYYCIAQSRSYDRYISAGRRYDYWGQGTQVTVSS,low polyreactivity
20,QVQVVQSGGGLVQAGGSLRLSCAASGSIFVPNSMGWYRPPPGKERELVAAISLSGGSTYYADSVKGRFTISRDYARNTVYLQMTSLKPEDSAVYYCAADIFYYSSSYGYWGLGTQVTVSS,low polyreactivity
21,QVRLVESCGGLVQAGGSLRLSCAASGITFQYNAMGWYRQAPGKERELVATIRRGGITKYADSVKGRFTISRDNAKNTVYLQMNSLKPEDTAVYYCNADWVWRYSSDFDYWGQGTQVTVSS,low polyreactivity
22,QVRLVESGGGLVQAGGSLRLSCAASGSTFWSYAMGWYRQAPGKERELVAAISWSGDSTYYADSVKGRFTISRDNAKNTVYLQMNSLKPEDTAVYYCAADYTGSFYTYDYWGQGTQVTVSS,low polyreactivity
23,QVRLVESGGGLVQAGGSLRLSSAASGRIFNGNAMGWYRQAPGKERELVAAINRGGSTNYADSVKGRFTISRDNAKNTVYLQMNSLKPEDTAVYYCAAELLYATRWRRYSGYYDWGQGTQVTVSS,high polyreactivity
24,QVWLQESGGGLVQACGSLRLRCAASGTISRDIFMGWYRQAPGKEREFVATIAQGGITNYADSVKGRFTISRDNAKNTVYLQMNSVKPGDTAVYYCAARDGNCYWFYYLGQGTQVTVSS,high polyreactivity
25,RFQLVESGGGLVQAGGSLRLSCAASGFTFRDYSMGGYRQAPGKERELVATISWGGASTSYADSVKGRFTISRDNAKNTVYLQMNSLKPEDTAVYYCNVRAQRRHGGYDHWGQGTLVTVSS,low polyreactivity
26,RVQLQESGGGLVQAGGSLRLSCAASGTIFIRGDMGWYRQAPGKEREFVATIDTGSNTYYADSEKGRFTISRDNAKNAVSLQMICLKPGDTAVYYCVVDYQLSGRLRYWGQGTQVTLSS,low polyreactivity
27,RVQLVESGGGLVQAGGSLRLSCAASGFTFRDYAMGWYRQAPGKERELVARIRIRDSNTYYADSVKGRFTISRDNAKNTVYLQMNSLKPEDTAVYYCAVVANYVYSKYDYWGQGTQVTVSS,low polyreactivity
28,VQLVESGGGLVQAGGSLRLSCAASGFTFRWYAMGWYRQAPGKERELVAAISRGGNTNYADSVKGRFTISRDNANNTVYLQMNSLNPDDTAVYYCAAGHGSLRYNYWGQGSQVTVSS,high polyreactivity
29,VQLVESGGGLVQAGVSLRLSCAASGSTFRPYAMGWYRQAPGKERELVAAITGSGGSTYYADSVKGRFTISRDNAKNTVYLQMNSLKPEDTAVYYCNAVSTWRYYYWGQGTQVTVSS,high polyreactivity
